The record followed here is publication PMC5323130 (Oncotarget, 2016).

Where a SMILES comes first, the peptide text is derived from it. Where no end group is shown, it is not given here.

One assay concerns the target T1, hPD-1 (Homo sapiens, UniProt Q15116).
T1 construct: extracellular region of hPD-1 (amino acids 34–150); made in house; host or cells: E. coli BL21 (DE3)
Description: SPR direct binding assay, hPD-1 immobilized on CM5 sensor chip. The following applies: steady-state model, PBS-P buffer pH 7.4, 25°C, mean ± SD from three independent experiments. As to the method:
The purified active hPD-1 was diluted in 10 mM sodium acetate buffer (pH 4.5) to the final concentration of 50 μg/ml. The diluted hPD-1 was immobilized on a CM5 sensor chip by amino coupling reagent kit, and the immobilization level was 5000 response unit (RU). Binding experiments were performed in PBS-P buffer (8 mM Na2HPO4, 2 mM KH2PO4, 137 mM NaCl, 2.7 mM KCl, 0.005% surfactant P20, pH 7.4) at 25°C with a flow rate of 30 μl/min. […] RU values were collected and all the experimental data was globally analyzed by a steady-state model within Biacore T200 Evaluation software, version 2.0.

In assay [1] the target is T2, human programmed death 1 (hPD-1), extracellular region (amino acids 34-150) (human, UniProt Q15116 34-150).
T2 construct: extracellular region of human PD-1, amino acids 34-150, cloned into pET28a between NcoI and NdeI sites; purification was by cation exchange and gel filtration; also called CD279
Description: SPR; Biacore T200; hPD-1 immobilised on a CM5 chip by amine coupling (5000 RU); peptides or hPD-L1 injected 90 s, dissociation 120 s; PBS-P buffer pH 7.4, 25°C, 30 μl/min; steady-state model. The following applies: both partners purified. (Surface plasmon resonance follows binding to a sensor surface in real time, without labels.)

Assay [2] has as its target T2, human programmed death 1 (hPD-1), …. The description is as above. The following applies: both partners purified. The source holds these as a separate data set.
For assay [3] the target is unchanged. Described as above. The conditions noted are these: both partners purified. The source holds these as a separate data set.

The Kd is the concentration at which binding is half-saturated. The low end stands for higher affinity, the high end for lower affinity.

T1 sequence (Q15116 34-150): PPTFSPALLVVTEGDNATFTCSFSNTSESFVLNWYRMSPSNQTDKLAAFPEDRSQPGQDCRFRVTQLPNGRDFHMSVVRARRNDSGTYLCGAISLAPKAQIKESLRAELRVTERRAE
T2 sequence (Q15116 34-150): as above

Consider `N[C@@H](Cc1c[nH]c2ccccc12)C(=O)N[C@@H](CC(=O)O)C(=O)N[C@@H](Cc1ccc(O)cc1)C(=O)N[C@@H](CC(=O)O)C(=O)O` [Ar3_1, WDYD] (H-WDYD-OH), for which the Kd at hPD-1 was 22.4 ± 0.34 µM. In turn, GNWDANSQRAQLYNQ [Peptide Y5A] registered a Kd at hPD-1 of 20.1 ± 0.98 µM.

B1: Ar5M_2 (peptide)
peptide: LDYVNRRKMYQ
notes: peptide designed with anchor residues R113, M115, A121, D122 and Y123 of hPD-L1; source: synthetic peptide (Fmoc solid-phase synthesis)
In turn, B1 showed a Kd in assay [1] of 3.32 µM.

B2: Ar4_2 (peptide)
peptide: LDYDGRLSQ
notes: peptide designed with anchor residues R113, A121, D122 and Y123 of hPD-L1; source: synthetic peptide (Fmoc solid-phase synthesis)
Molecule B2 came in with a Kd in assay [1] of 83.9 µM.

B3: Ar5Y_4 (peptide)
peptide: GNWDYNSQRAQLYNQ
notes: de novo designed peptide with anchor residues Y56, R113, A121, D122 and Y123 of hPD-L1; source: synthetic peptide (Fmoc solid-phase synthesis)
Regarding B3, the Kd in assay [2] came out at 1.38 µM.

B4: Ar5Y_4 mutant W3A (peptide)
peptide: GNADYNSQRAQLYNQ
notes: numbers count on the peptide itself; source: synthetic peptide (Fmoc solid-phase synthesis)
As to B4, the Kd in assay [3] was 8.08 µM.

B5: Ar5Y_4 mutant Y13A (peptide)
peptide: GNWDYNSQRAQLANQ
notes: as for B4
In assay [3], B5 returned a Kd of 10.2 µM.

B6: Ar5Y_4 mutant R9A (peptide)
peptide: GNWDYNSQAAQLYNQ
notes: as for B4
For B6, in assay [3], binding was put at a Kd of 21.2 µM.

B7: Ar5Y_4 mutant Y5A (peptide)
peptide: GNWDANSQRAQLYNQ
notes: as for B4
Molecule B7 displayed a Kd in assay [3] of 20.2 µM.

B8: Ar5Y_4 mutant D4A (peptide)
peptide: GNWAYNSQRAQLYNQ
notes: as for B4
On to B8, for which the affinity in assay [3], expressed as Kd, was 18.9 µM.

B9: Ar5Y_3 (peptide)
peptide: TEKDYRHGNIRMKLAYDL
notes: as for B3
In assay [2], B9 returned a Kd of 3.13 µM.

B10: Ar5Y_2 (peptide)
peptide: FNWDYSLEELREKAKYK
notes: as for B3
In assay [2], B10 gave a Kd of 3.14 µM.

B11: Ar4_1 (peptide)
peptide: GIDYEERWK
notes: as for B2
On to B11, for which the Kd in assay [1] was 28.3 µM.

B12: Ar5M_1 (peptide)
peptide: LDYGDKREGQMAE
notes: as for B1
For B12, the affinity in assay [1], expressed as Kd, was 21.6 µM.

B13: Ar5Y_1 (peptide)
peptide: FNWDYSWKSERLKEAYDL
notes: as for B3
Take B13: the Kd in assay [2] is 3.39 µM.
